*1 amine or outer side, *2 acyl side, *3 side chain or, on linkers, in order; H or OH if unused. Where no end group is shown, it is not given here. Side-chain parts run from the residue outwards. [ ]: non-standard residue; d: D form. The star is where a group is joined. αMePhe(2-F) = C[C@](N)(Cc1ccccc1F)C(=O)O; γGlu = O=C(O)[C@H](CCC(=O)[*:2])N[*:1]; C14 diacid = O=C(O)CCCCCCCCCCCCC(=O)*; αMeY = C[C@](N)(Cc1ccc(O)cc1)C(=O)O; αMeL = CC(C)C[C@](C)(N)C(=O)O; Orn = NCCC[C@H](N)C(=O)O; AEEA = NCCOCCOCC(=O)O; Aib = CC(C)(N)C(=O)O
B1: Example 319 (peptide)
peptide: YXEGTXTSDVXIXLDXKAQXKFIXXLIEGGPSSGAPPPS
modifications: Y-Aib-EGT-αMeF(2F)-TSDV-Aib-I-αMeL-LD-Orn-K((2-[2-(2-Amino-ethoxy)-ethoxy]-acetyl)2-(γ-Glu)-(10-(4-carboxyphenoxy)decanoyl))AQ-Aib-K((2-[2-(2-Amino-ethoxy)-ethoxy]-acetyl)2-(γ-Glu)-(10-(4-carboxyphenoxy)decanoyl))FI-(D-Glu)-αMeY-LIEGGPSSGAPPPS-NH2
B2: Example 318 (peptide)
peptide: YXEGTXTSDVXIXLDXKAQXKFIXXLIEGGPSSGAPPPS
modifications: Y-Aib-EGT-αMeF(2F)-TSDV-Aib-I-αMeL-LD-Orn-K((2-[2-(2-Amino-ethoxy)-ethoxy]-acetyl)2-(γ-Glu)-CO-(CH2)12-CO2H)AQ-Aib-K((2-[2-(2-Amino-ethoxy)-ethoxy]-acetyl)2-(γ-Glu)-CO-(CH2)12-CO2H)FI-(D-Glu)-αMeY-LIEGGPSSGAPPPS-NH2
B3: Example 298 (peptide)
peptide: YXEGTXTSDXSIXLDXKAQXKFIXXLIXGGPSSGAPPPS
modifications: Y-Aib-EGT-αMeF(2F)-TSD-4Pal-SI-αMeL-LD-Orn-K((2-[2-(2-Amino-ethoxy)-ethoxy]-acetyl)2-(γ-Glu)-CO-(CH2)10-CH3)AQ-Aib-K((2-[2-(2-Amino-ethoxy)-ethoxy]-acetyl)2-(γ-Glu)-CO-(CH2)10-CH3)FI-(D-Glu)-αMeY-LI-Orn-GGPSSGAPPPS-NH2
B4: Example 300 (peptide)
peptide: YXEGTXTSDYXIXLDXKAQXKFIXXLIEGGPSSGAPPPS
modifications: Y-Aib-EGT-αMeF(2F)-TSDY-Aib-I-αMeL-LD-Orn-K((2-[2-(2-Amino-ethoxy)-ethoxy]-acetyl)2-(γ-Glu)-CO-(CH2)10-CH3)AQ-Aib-K((2-[2-(2-Amino-ethoxy)-ethoxy]-acetyl)2-(γ-Glu)-CO-(CH2)10-CH3)FI-(D-Glu)-αMeY-LIEGGPSSGAPPPS-NH2
B5: Example 301 (peptide)
peptide: YXEGTXTSDYXIXLDXKAQXEFIXXLIKGGPSSGAPPPS
modifications: Y-Aib-EGT-αMeF(2F)-TSDY-Aib-I-αMeL-LD-Orn-K((2-[2-(2-Amino-ethoxy)-ethoxy]-acetyl)2-(γ-Glu)-CO-(CH2)10-CH3)AQ-Aib-EFI-(D-Glu)-αMeY-LIK((2-[2-(2-Amino-ethoxy)-ethoxy]-acetyl)2-(γ-Glu)-CO-(CH2)10-CH3)GGPSSGAPPPS-NH2
B6: Example 329 (peptide)
peptide: Y[Aib]EGT[αMePhe(2-F)]TSDV[Aib]I[αMeL]LD[Orn]IAQ[Aib]K([AEEA-AEEA-γGlu-C14 diacid])FI[dE][αMeY]LIK([AEEA-AEEA-γGlu-C14 diacid])GGPSSGAPPPS-NH2
modifications: N-terminus assumed
SMILES: CC[C@H](C)[C@H](NC(=O)[C@H](CCCN)NC(=O)[C@H](CC(=O)O)NC(=O)[C@H](CC(C)C)NC(=O)[C@](C)(CC(C)C)NC(=O)[C@@H](NC(=O)C(C)(C)NC(=O)[C@@H](NC(=O)[C@H](CC(=O)O)NC(=O)[C@H](CO)NC(=O)[C@@H](NC(=O)[C@](C)(Cc1ccccc1F)NC(=O)[C@@H](NC(=O)CNC(=O)[C@H](CCC(=O)O)NC(=O)C(C)(C)NC(=O)[C@@H](N)Cc1ccc(O)cc1)[C@@H](C)O)[C@@H](C)O)C(C)C)[C@@H](C)CC)C(=O)N[C@@H](C)C(=O)N[C@@H](CCC(N)=O)C(=O)NC(C)(C)C(=O)N[C@@H](CCCCNC(=O)COCCOCCNC(=O)COCCOCCNC(=O)CC[C@H](NC(=O)CCCCCCCCCCCCC(=O)O)C(=O)O)C(=O)N[C@@H](Cc1ccccc1)C(=O)N[C@H](C(=O)N[C@H](CCC(=O)O)C(=O)N[C@@](C)(Cc1ccc(O)cc1)C(=O)N[C@@H](CC(C)C)C(=O)N[C@H](C(=O)N[C@@H](CCCCNC(=O)COCCOCCNC(=O)COCCOCCNC(=O)CC[C@H](NC(=O)CCCCCCCCCCCCC(=O)O)C(=O)O)C(=O)NCC(=O)NCC(=O)N1CCC[C@H]1C(=O)N[C@@H](CO)C(=O)N[C@@H](CO)C(=O)NCC(=O)N[C@@H](C)C(=O)N1CCC[C@H]1C(=O)N1CCC[C@H]1C(=O)N1CCC[C@H]1C(=O)N[C@@H](CO)C(N)=O)[C@@H](C)CC)[C@@H](C)CC
B7: Example 325 (peptide)
peptide: Y[Aib]EGT[αMePhe(2-F)]TSDV[Aib]I[αMeL]LD[Orn]K([AEEA-AEEA-γGlu-C14 diacid])AQ[Aib]EFI[dE][αMeY]LIK([AEEA-AEEA-γGlu-C14 diacid])GGPSSGAPPPS-NH2
modifications: N-terminus assumed
SMILES: CC[C@H](C)[C@H](NC(=O)[C@H](CC(C)C)NC(=O)[C@](C)(Cc1ccc(O)cc1)NC(=O)[C@@H](CCC(=O)O)NC(=O)[C@@H](NC(=O)[C@H](Cc1ccccc1)NC(=O)[C@H](CCC(=O)O)NC(=O)C(C)(C)NC(=O)[C@H](CCC(N)=O)NC(=O)[C@H](C)NC(=O)[C@H](CCCCNC(=O)COCCOCCNC(=O)COCCOCCNC(=O)CC[C@H](NC(=O)CCCCCCCCCCCCC(=O)O)C(=O)O)NC(=O)[C@H](CCCN)NC(=O)[C@H](CC(=O)O)NC(=O)[C@H](CC(C)C)NC(=O)[C@](C)(CC(C)C)NC(=O)[C@@H](NC(=O)C(C)(C)NC(=O)[C@@H](NC(=O)[C@H](CC(=O)O)NC(=O)[C@H](CO)NC(=O)[C@@H](NC(=O)[C@](C)(Cc1ccccc1F)NC(=O)[C@@H](NC(=O)CNC(=O)[C@H](CCC(=O)O)NC(=O)C(C)(C)NC(=O)[C@@H](N)Cc1ccc(O)cc1)[C@@H](C)O)[C@@H](C)O)C(C)C)[C@@H](C)CC)[C@@H](C)CC)C(=O)N[C@@H](CCCCNC(=O)COCCOCCNC(=O)COCCOCCNC(=O)CC[C@H](NC(=O)CCCCCCCCCCCCC(=O)O)C(=O)O)C(=O)NCC(=O)NCC(=O)N1CCC[C@H]1C(=O)N[C@@H](CO)C(=O)N[C@@H](CO)C(=O)NCC(=O)N[C@@H](C)C(=O)N1CCC[C@H]1C(=O)N1CCC[C@H]1C(=O)N1CCC[C@H]1C(=O)N[C@@H](CO)C(N)=O

How the values were obtained:
Assay in all cases: cell-based or functional assay
[1] = target: T1, human GIP receptor (human) (UniProt P48546)
T1 sequence (looked up): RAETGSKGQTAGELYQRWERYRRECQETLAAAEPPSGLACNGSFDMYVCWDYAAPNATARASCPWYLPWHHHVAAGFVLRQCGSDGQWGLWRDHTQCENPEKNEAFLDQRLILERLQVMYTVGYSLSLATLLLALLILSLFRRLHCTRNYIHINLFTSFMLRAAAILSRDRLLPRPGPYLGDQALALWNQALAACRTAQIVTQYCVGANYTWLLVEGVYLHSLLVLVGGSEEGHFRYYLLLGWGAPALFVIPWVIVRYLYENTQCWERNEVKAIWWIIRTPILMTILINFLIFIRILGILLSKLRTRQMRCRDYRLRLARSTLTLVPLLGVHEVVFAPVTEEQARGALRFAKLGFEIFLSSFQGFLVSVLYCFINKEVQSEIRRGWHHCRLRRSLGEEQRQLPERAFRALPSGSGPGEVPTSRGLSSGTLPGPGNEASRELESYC

[2] = target: human glucagon receptor (human) (UniProt P47871)
[3] = target: hGLP-1R (Homo sapiens, UniProt P43220)
[4] = target: T2, human GIP receptor (human, UniProt P48546 22-466)
T2 sequence (looked up): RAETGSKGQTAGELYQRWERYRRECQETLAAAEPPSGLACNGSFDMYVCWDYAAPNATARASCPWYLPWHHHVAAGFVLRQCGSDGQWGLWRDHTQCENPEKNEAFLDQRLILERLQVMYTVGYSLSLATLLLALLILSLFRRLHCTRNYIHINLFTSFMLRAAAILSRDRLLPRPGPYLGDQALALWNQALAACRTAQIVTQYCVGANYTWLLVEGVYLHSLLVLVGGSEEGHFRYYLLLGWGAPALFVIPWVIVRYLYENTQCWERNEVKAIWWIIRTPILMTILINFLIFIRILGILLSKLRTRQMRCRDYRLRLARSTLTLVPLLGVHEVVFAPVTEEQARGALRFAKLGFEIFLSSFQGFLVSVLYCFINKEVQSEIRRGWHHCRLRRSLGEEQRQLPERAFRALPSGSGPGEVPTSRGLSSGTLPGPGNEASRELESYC

[5] = target: human GLP-1 receptor (human, UniProt P43220 24-463)
[6] = target: human glucagon receptor (human, UniProt P47871 26-477)

Binder | cAMP EC50 [1] | cAMP Emax [1] | cAMP EC50 [2] | cAMP EC50 [3] | cAMP Emax [3] | cAMP EC50 (1.0% HSA) [4] | cAMP EC50 (1.0% HSA) [5] | cAMP Emax (1.0% HSA) [5] | cAMP EC50 (1.0% HSA) [6] | cAMP Emax (1.0% HSA) [4]
B1 | 0.0196 nM | 98.1% | > 9950 nM | 0.18 nM | 100% | 3.35 nM | 28.1 nM | 114% | > 9950 nM | 
B2 | 0.0402 nM | 106% | > 9950 nM | 0.219 nM | 99.9% | 5.42 nM | 28.7 nM |  | > 9950 nM | 
B3 |  | 97.4% | > 9950 nM | 0.19 nM | 106% | 0.237 nM | 3.64 nM |  | > 9950 nM | 95%
B4 | 0.0128 nM | 102% | > 9950 nM | 0.194 nM | 107% | 1.25 nM | 19.6 nM |  | > 9950 nM | 91.5%
B5 | 0.0128 nM | 97.4% | > 9950 nM | 0.175 nM | 99.2% | 0.919 nM | 12.9 nM |  | > 9950 nM | 85.5%
B6 | 0.015 nM | 109% | > 9950 nM | 0.353 nM | 104% | 5.44 nM | 74.7 nM | 88.3% | > 9950 nM | 100%
B7 | 0.0485 nM | 104% | > 9950 nM | 0.225 nM | 97.8% | 3.96 nM | 23.5 nM | 98.4% | > 9950 nM | 94.7%
